Laboratory results taken from patent US20250262271A1 (ARIZONA BOARD OF REGENTS ON BEHALF OF THE UNIVERSITY OF …, published 2025).

Target: T1, Kog1-FLAG (Saccharomyces cerevisiae, UniProt P38873 1-1557)
T1 construct: Bait of the TORC1 immunopurifications; also called TORC1 subunit Kog1/Raptor with FLAG tag; TORC1 (as purified through Kog1-FLAG); not shown: FLAG tag
Test: co-immunopurification after DSP crosslinking, Western blot; long term amino acid and glucose starvation

T1 sequence (P38873 whole entry): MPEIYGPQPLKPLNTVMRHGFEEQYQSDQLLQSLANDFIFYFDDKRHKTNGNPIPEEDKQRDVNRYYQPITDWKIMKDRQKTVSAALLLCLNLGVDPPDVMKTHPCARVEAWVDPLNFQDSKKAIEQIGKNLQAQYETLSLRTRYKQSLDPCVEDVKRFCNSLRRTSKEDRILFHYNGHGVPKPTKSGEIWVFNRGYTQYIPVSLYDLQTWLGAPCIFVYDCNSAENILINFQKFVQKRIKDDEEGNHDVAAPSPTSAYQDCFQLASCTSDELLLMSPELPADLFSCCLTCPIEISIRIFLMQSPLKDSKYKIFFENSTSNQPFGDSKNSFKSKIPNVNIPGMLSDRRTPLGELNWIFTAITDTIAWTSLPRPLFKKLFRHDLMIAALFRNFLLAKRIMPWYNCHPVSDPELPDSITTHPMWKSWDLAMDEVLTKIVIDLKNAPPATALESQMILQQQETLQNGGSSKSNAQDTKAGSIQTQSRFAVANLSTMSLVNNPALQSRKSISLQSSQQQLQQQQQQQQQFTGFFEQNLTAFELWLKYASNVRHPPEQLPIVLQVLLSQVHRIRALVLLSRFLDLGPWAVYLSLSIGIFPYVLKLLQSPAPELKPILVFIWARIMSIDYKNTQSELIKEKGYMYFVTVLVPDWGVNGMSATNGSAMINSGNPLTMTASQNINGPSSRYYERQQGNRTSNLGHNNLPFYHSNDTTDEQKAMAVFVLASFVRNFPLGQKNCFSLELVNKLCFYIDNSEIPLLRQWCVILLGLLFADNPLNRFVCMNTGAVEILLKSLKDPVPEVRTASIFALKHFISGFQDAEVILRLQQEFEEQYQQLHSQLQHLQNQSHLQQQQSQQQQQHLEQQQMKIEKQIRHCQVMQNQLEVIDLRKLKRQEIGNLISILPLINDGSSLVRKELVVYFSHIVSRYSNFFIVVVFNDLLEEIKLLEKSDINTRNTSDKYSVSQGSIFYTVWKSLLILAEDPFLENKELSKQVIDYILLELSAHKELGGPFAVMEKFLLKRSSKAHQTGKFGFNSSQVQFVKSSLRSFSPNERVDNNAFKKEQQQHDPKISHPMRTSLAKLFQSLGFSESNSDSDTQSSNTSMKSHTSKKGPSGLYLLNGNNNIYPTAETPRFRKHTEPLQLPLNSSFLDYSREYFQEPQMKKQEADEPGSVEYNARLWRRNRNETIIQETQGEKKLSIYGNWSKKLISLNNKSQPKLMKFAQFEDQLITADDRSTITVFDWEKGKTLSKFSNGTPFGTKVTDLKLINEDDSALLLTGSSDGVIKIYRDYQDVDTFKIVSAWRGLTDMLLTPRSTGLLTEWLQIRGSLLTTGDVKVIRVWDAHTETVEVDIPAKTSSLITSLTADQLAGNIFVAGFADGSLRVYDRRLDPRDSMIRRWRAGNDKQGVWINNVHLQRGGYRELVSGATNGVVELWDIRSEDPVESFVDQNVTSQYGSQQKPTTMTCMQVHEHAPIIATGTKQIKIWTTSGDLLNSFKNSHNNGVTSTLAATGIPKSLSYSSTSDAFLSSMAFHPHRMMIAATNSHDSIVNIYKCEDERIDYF

co-purified amount relative to log phase growth: 50%
B1: GFP-Ait1 (other)
chain: MVRLNHAASYFMPIFCSTRPHIVILSALFSISLFSLFYASSELLLHQYDDPLMFKPNSQDYFRTFLLGLFSPFLYYFLKTFLFNINQRFLILNLIVDFPINDVFMLLILIGLAYPQVQDHEGGTIKHKECSWHIIPRQAYIFGISWALGEFTICIIGNLFNYQEIADPNINSGFTHQESANTYCNNNDMSHNDDCGCSTEYRPNVVDRSDITLSKCIEVRNDSSSISNNVYSSEYHPIKPLRSSSSTYGSIRQQPHENKKQLHVPDNSQDDTIIMMNPIDNSLKLTTLDTGDLSFPIDEEQPILKKSFGYTWAVPNENTQNTTKSFTPIKRFIAFSTAYQLVTGLLLMILVVGSNIMLTIGESLILSMYFVYVRGHEGLFTPVVNYFGSRTISNFILCVIIPFISLNFLINTSIYLRRELDDWFNNSQGEFEDDDENTISKRVATNQEYQHPLSANYISMDSPDVINSSPGHFGMNSGQLLGNTTLYYGSLNGDDDDMTNDSALLRFCKKLVKNWRALARNDSFVLGVMVSWSLLVFVTGILSTVYI
notes: Expressed in S. cerevisiae (W303) and immunopurified from DSP-crosslinked, digitonin-treated lysate; also called Ait1-GFP; GFP-tagged Ydl180w; not shown: GFP tag
